Measured values: the supplement of paper PMC12764529
± gives the half width of the 95% confidence interval.

Assay: folding stability dG unfold (combined trypsin and chymotrypsin); higher = more stable
Method: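 Folding stability of de novo designed mini-proteins (<80 aa, no Cys; designed by TrROS, TrMRF, ProteinMPNN and the joint model) was measured by cDNA display proteolysis with trypsin and chymotrypsin. Each protease was used at 11 concentrations in a threefold dilution series plus a no-protease condition. K50 was inferred by Bayesian fitting of sequencing counts, and dG unfold was derived against a sequence-predicted unfolded-state K50 (Tsuboyama et al. method). Sequences shown include variable-length N-terminal GS-type padding (SAGGSAGG...) inside a display construct carrying a PA tag. Rows were kept only if the AF2 dimer inter-PAE was >15, to exclude likely homo-oligomers.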

SAGGSAGGSAGEPGFTVRVLKKDLPTGEFSEVEIEVPASVPLEEVIEALDPDQVVAVEVESAGGSAGGSAGG [r11_386_TrMRF]
folding stability dG unfold: < -1 kcal/mol

SAGMKPGEPIMTIKIKVKDPDNGKEVPINIPVRYQYDNGEPKRPISPDDALEEAKDLADRLKKDPNIKISAG [r5_426_TrROS]
folding stability dG unfold: < -1 kcal/mol

SAGGMLRTVKTEKYSDGTVVEPVADAAGNVTYTIVKKRKKVFDGDKVYYSEPVTIFKNGVKVEEKNISSAGG [r13_1007_JUSTAS]
folding stability dG unfold: < -1 kcal/mol

SAGGSAGGSSPSDTVTAELRYVLPDGTPVERTLSLTDLPSSVTPEDTLTLPGPGLRARILAVTGSAGGSAGG [r6_561_JUSTAS]
folding stability dG unfold: < -1 kcal/mol

SAGGLTITVTPSVSENEVVVPGTGKPRFPEPRETYTVTVTPAPDVSLEEVAAEIREKFPGRGYTLTPSAGGS [r8_30_JUSTAS]
folding stability dG unfold: < -1 kcal/mol

EPNYLVQIEIEPRMYQKDEDGKPLKPQPMKQPFFGPADDPEQVKDNLRDNFGPEVEIDEVMPLEDINEGQFS [r1_493_TrROS]
folding stability dG unfold: < -1 kcal/mol

SAGGSEVFVLPNGAVAVVEPDPDGVRVARVPGLPGVAVRYPPATRRWVLVTVDPRKGGPRTFTLTGSAGGSA [r2_477_TrMRF]
folding stability dG unfold: < -1 kcal/mol

SAGGSAGGSAGRLPPGMKIRIWHRRDGKPRRREFEIPPGMPSIEDAAKEHPPIESVKIERSAGGSAGGSAGG [r11_157_TrROS]
folding stability dG unfold: < -1 kcal/mol

SAGGSAGGSAGGMKVIPIYSPGKGSKEEIIELVKKKNPNVKKVEVTYNPEEDVATVTIESAGGSAGGSAGGS [r10_225_JUSTAS]
folding stability dG unfold: < -1 kcal/mol

SAGGSAGGSALKINKLLKEGYEVEVTPPDGKKYVLKKGDSAKKPKEKFNLPENAKIKIKPLSAGGSAGGSAG [r3_216_TrMRF]
folding stability dG unfold: < -1 kcal/mol

SAGGSAGGSAGGKITEVDTSNNMVEITLKHPGGKRERPIDPGKTMAQILDELKENPDLVISAGGSAGGSAGG [r7_373_TrROS]
folding stability dG unfold: < -1 kcal/mol

SAGGSALKPGQPVMIHVRLKIERPDPDGDEKKIPEIHIPVPVEEAKDIAEALPPNYKVKIDDISIMSAGGSA [r15_833_TrROS]
folding stability dG unfold: < -1 kcal/mol

SAGGSAGGSAGGPPVPYKIKSPNGRPFPVQINPDSGQIEIEFPGETRKIPLGMNWEIEPVSAGGSAGGSAGG [r7_434_TrROS]
folding stability dG unfold: < -1 kcal/mol

SAGGSAGGSAGPNDKWKMEMEIEHSIPIEPGDTVRSPDTGEPIKPGKQVSIFRMYMEPAPSAGGSAGGSAGG [r11_793_TrROS]
folding stability dG unfold: < -1 kcal/mol

SAGGSAGGSAGGSAMVYRTEVLVESEELPPPGVGGRLRREGEKVIVRKAPPEALEELGRSAGGSAGGSAGGS [r4_274_JUSTAS]
folding stability dG unfold: < -1 kcal/mol

SAGGNKTREREIPIPPGDSPDQAVDRVLEELEKHPDNNNVNINFRHPNGMPIKIRVTPNGKITEVEPYSAGG [r13_690_TrROS]
folding stability dG unfold: < -1 kcal/mol

SAGGSAGGSVYYDESEDGVFVRVEGDGAPRVFPVADPEEARYRRIPTPDGRPVRVELRPSEEGSAGGSAGGS [r12_730_TrMRF]
folding stability dG unfold: < -1 kcal/mol

SAGGSAGSSSVSTVTPVGDYVVVTVNAPEGSVVTITDPATGTTETRAAPAGATFTVPPNASVSVTNSAGGSA [r15_418_JUSTAS]
folding stability dG unfold: < -1 kcal/mol

SAGGSAGGSAGGWYRIKWPNGHEYPVKVDEIDPDGNIKVEPPNDEEHKFPADGMKIEPLPSAGGSAGGSAGG [r7_823_TrROS]
folding stability dG unfold: < -1 kcal/mol

SAGSYTVDVSYRVPVRLSPAGAVEVPVEVELKRYLPDGVPLGEEEIEEEEEKLAEEIAKELAEALAPLSAGG [r19_389_JUSTAS]
folding stability dG unfold: < -1 kcal/mol

SAGGSAGGSAGGGGKKKREISIMFEGGTPSDFKREAREIANSPENKDNVDEVEITMMPGSAGGSAGGSAGGS [r10_351_TrROS]
folding stability dG unfold: < -1 kcal/mol

SAGGPSMSLSTRTVTLPVDPDTTEEEIKEALNREVKLPSPSTAIETPVEVEISPGPPVATVTLQVKILSSAG [r5_939_JUSTAS]
folding stability dG unfold: < -1 kcal/mol

SAGGSAGGSARVTVTPLPDDRVAVSVERTLYRRDADGNPLGPVRIQASVVVDSLEDAAELASAGGSAGGSAG [r3_232_TrMRF]
folding stability dG unfold: < -1 kcal/mol

SAGGSAGGSAGGKLRIFYPNPWQARWRAKTIQNEMMDNGYKIPPNVEIEIHPMRPDPGDWSAGGSAGGSAGG [r7_965_TrROS]
folding stability dG unfold: < -1 kcal/mol

SMYYVATVIRKKKDGGPYLGPEVRIVESPEEAEEIALEPAPERDYVVELKVEEVPLEELENPEKIKELLESA [r9_864_TrMRF]
folding stability dG unfold: < -1 kcal/mol

SAGGMELKVVTLEATSGRREDAGLVPAALEEGARELALAHPELRILGADMEVEPLGEEYVARIPLVVGSAGG [r13_305_TrMRF]
folding stability dG unfold: < -1 kcal/mol

SAGGMTSTFRFSDSRGRLSVEKITPETGKVTVVEQGPSSPRRSTLNASPEEAFQQLKDANDFPASRLESAGG [r13_141_JUSTAS]
folding stability dG unfold: < -1 kcal/mol

SAGGSAPPLTEVTLTEVSTDPETGTTTLTLEASGPVESVPLEFPDGRSVKAERLPDGTLVVTNPGASAGGSA [r15_736_JUSTAS]
folding stability dG unfold: < -1 kcal/mol

SAGGSAGGSMFMVKINNGKEIPIPPEDLPPGETVEELADNIPPGMRNIEIYNWDGEEQEIPIDSAGGSAGGS [r20_161_TrROS]
folding stability dG unfold: < -1 kcal/mol

SNFYFTIEIERPDPNGEEKKIEITIPMERINQELQEEHGMESPQEAQEYFAKEIAEKFDENGYKVKIEPFSA [r9_868_TrROS]
folding stability dG unfold: -0.316 ± 0.52 kcal/mol

SAGGSAGGSAGNKPIMIKAEFPGNGREVEFPIRSPEQAKEFAKRLANQPGFPIKDVDIYPSAGGSAGGSAGG [r11_951_TrROS]
folding stability dG unfold: < -1 kcal/mol

SAGGSASPDTRLVRIELKSNVPGTGIEVTETVPLVELEPDEPAEAVAEEVRAAHPVDEVTVTVDPASAGGSA [r15_540_JUSTAS]
folding stability dG unfold: < -1 kcal/mol

PDDPEEQREQMPPIPPEWAEELARKFAEKLGDEEVTEVEVDDITPNGYIEVEIENPDGGEVKIEIPMDDIMS [r1_435_TrROS]
folding stability dG unfold: < -1 kcal/mol

SAGGSAGGSAGGSGMRLVEEVKYSTRKQPTGVPVYEVENLKVKEVPVKITVDSNGVLTLESAGGSAGGSAGG [r11_381_JUSTAS]
folding stability dG unfold: < -1 kcal/mol

SAGPEPIKIKILKMQPNPNGTPMIRVKVVPPDGKPGEIPIPQEMLKEGNLDDMTIDDIAEEFPGLKPVSAGG [r19_74_TrROS]
folding stability dG unfold: < -1 kcal/mol

SAGSFEYEFENGSSNRVEVDPENKEVKVEYEPKEGKLIAALPEKGVVLVPIKDKKVEEAAKEVIEKLKKSAG [r5_447_TrMRF]
folding stability dG unfold: < -1 kcal/mol

SAGGSAGGMELVTLPVVTTEEVPVPPVTKTLPNGTRETVPQPPVTVVRETVLLTTPEEAAALLRSAGGSAGG [r6_120_JUSTAS]
folding stability dG unfold: < -1 kcal/mol

SAGGSAGGSAGEPIPFRIKVELPGNGREQEIDFPIKTPSEANEIANQLPPGFKRVKIEWYSAGGSAGGSAGG [r11_25_TrROS]
folding stability dG unfold: < -1 kcal/mol

SAGGSAGGMKKEKFGDSIRYTFPVDPNTSVEEIKKEIEKIPGVKDISKVKITPSPSNKLLVYVKSAGGSAGG [r6_516_JUSTAS]
folding stability dG unfold: < -1 kcal/mol

SAGGSAGGSMTPEKIKKIRKRMEERGYQIPSIETNPGNGMPFININPPDPEMREKDPELRELISAGGSAGGS [r12_482_TrROS]
folding stability dG unfold: < -1 kcal/mol

SAGGSAGGSAAPKPVTVEKTIKVPGNDPEKVKKELEPKGWKVLGVDKNTVKAKITLPPGYKKSAGGSAGGSA [r18_168_JUSTAS]
folding stability dG unfold: < -1 kcal/mol

SAGGSAGGSEMKIDRIKIHDFDPDNGNYFVRIRNNGGPKHTFPVKNADELKEHLPGVKVEVIKSAGGSAGGS [r12_403_TrROS]
folding stability dG unfold: < -1 kcal/mol

SAGGSAGGSAGGKKQTLVIRSDNKPIPIEYDDDNIKISNPNGKKQEIPPEDLPPDGIEPVSAGGSAGGSAGG [r7_748_TrROS]
folding stability dG unfold: < -1 kcal/mol

SAGGPMWQVRLRDPDGKKRTINIQQTNGNMYVRIQDKDGEPVKEHPVDSAEEALDKLEDHGYKVEVYPSAGG [r13_315_TrROS]
folding stability dG unfold: < -1 kcal/mol

SAGGGSIEDSNLSEEEIKEILSKLPEPVTVTVKRKEVKKVTYFENGKVKEEKIVEKEKTEVYYFPPKKSAGG [r13_632_JUSTAS]
folding stability dG unfold: < -1 kcal/mol

SAGGMPVVTPTTSTEPLPGGRAATVTTYTPPDGLVRQEVTLPPERRLFRLIDPATGEVVEKEEAELESAGGS [r16_735_JUSTAS]
folding stability dG unfold: < -1 kcal/mol

SAGGSAGGSAGGDNIMIKIRNPGKPRTFMIKDPEQLKNMSLKELADELVDKHGWPVEIYPSAGGSAGGSAGG [r7_259_TrROS]
folding stability dG unfold: < -1 kcal/mol

SAGGKPPKIKIKVEHEPYPGNGRYYMEVELEDPDDGKPIEIPFRGDSPEEAEENAKEIAREIAKELKSAGGS [r8_480_TrROS]
folding stability dG unfold: < -1 kcal/mol

SPKIKITEVEPNPGNMEKRTIELPNRPITLYWPPENGYYRVKIEDPDNNKERQIMVPPGQPPEEIAKDLLSA [r9_522_TrROS]
folding stability dG unfold: < -1 kcal/mol

SAGGMDDVIRKALEEATPPLEVKEELILTTEPTPRGTVITKTTRPIIKSPEPGTFVPEPVEVVPAALLSAGG [r19_11_JUSTAS]
folding stability dG unfold: < -1 kcal/mol

SAGGSAGGSAGVTDPNSSKPVPSSYVVVTVRGPEKESYYRVPPSEAAAFAAARGVEVILESAGGSAGGSAGG [r17_109_JUSTAS]
folding stability dG unfold: < -1 kcal/mol

SAGPPNDVKPIEIPFKMENGSNFRAEIWRDPGDGKVFVPIEYPNPWHRKRMQNWARELAEEHGIDRVEPSAG [r5_99_TrROS]
folding stability dG unfold: < -1 kcal/mol

SAGGSAGGSAGGPRVTGTPVPGDDEPLLVVEREYTVEVGGGPRPVRVRFVFDHPDEALRSSAGGSAGGSAGG [r7_896_TrMRF]
folding stability dG unfold: < -1 kcal/mol

SAGGSAGGSAGMEIKPVKVKAIDPENPKPVAEFEVEVLPDKIIIPKEFAEKVPEDHVEVESAGGSAGGSAGG [r11_725_TrMRF]
folding stability dG unfold: < -1 kcal/mol

SAGGSAGGSAGGSGEDDVEVEVVPLPGDLTRTIERFPGLVRTFVYAPDSEVAEEEFELPSAGGSAGGSAGGS [r4_322_JUSTAS]
folding stability dG unfold: < -1 kcal/mol

SAGGSAGGSAGGMPVSFEELKKLPPNTVLIFSDGTVVTAPEEEVKKPFGKEKIVYVEEKPSAGGSAGGSAGG [r7_643_JUSTAS]
folding stability dG unfold: < -1 kcal/mol

SAGGPGVEIVEVDPDGTLRVRAYDPATREPIAEAEIRIGALPVPPPVPGVPVLLADGELREVELPAALSAGG [r13_9_TrMRF]
folding stability dG unfold: < -1 kcal/mol

SAGGSKVPLDDFDKVTIGVDPKTGKTTASIYYPSDGSTVTFPGKEIPEVLASNPNIKTVETEPLPGSAGGSA [r2_159_JUSTAS]
folding stability dG unfold: < -1 kcal/mol
